# Assays:
# [1] = target: T1, AgEH (epoxide hydrolase from Anopheles gambiae) (Anopheles gambiae, UniProt Q7PZL6); assay: inhibition of […],15-EET hydrolysis by recombinant AgEH in Sf-9 microsomes; assay type: biochemical
# T1 sequence (Q7PZL6 1-340): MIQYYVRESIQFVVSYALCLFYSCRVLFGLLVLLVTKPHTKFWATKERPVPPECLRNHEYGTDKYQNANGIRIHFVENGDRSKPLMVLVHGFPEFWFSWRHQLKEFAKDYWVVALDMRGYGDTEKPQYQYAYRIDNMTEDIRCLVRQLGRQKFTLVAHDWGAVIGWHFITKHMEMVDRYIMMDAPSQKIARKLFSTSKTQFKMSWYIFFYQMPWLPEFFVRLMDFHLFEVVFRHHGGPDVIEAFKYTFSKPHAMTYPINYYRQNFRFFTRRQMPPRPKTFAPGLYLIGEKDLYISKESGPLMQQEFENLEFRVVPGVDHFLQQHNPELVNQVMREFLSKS
# [2] = target: T1, AgEH (epoxide hydrolase from Anopheles gambiae); assay: % activity remaining on t-DPPO, recombinant AgEH in Sf-9 microsomes; assay type: cell-based; details: read-out: t-DPPO / 500nM
# [3] = substrate: COC(=O)/C=C(\C)CC/C=C(\C)CC[C@H]1OC1(C)C; assay type: biochemical, Anopheles gambiae
# [4] = substrate: c1ccc(C[C@@H]2O[C@H]2c2ccccc2)cc1; assay type: biochemical, Anopheles gambiae
# [5] = substrate: CCCCC/C=C\CC1OC1CCCCCCCC(=O)O; assay: Michaelis-Menten kinetics, LC-MS/MS, recombinant AgEH in Sf-9 microsomes; assay type: biochemical, Anopheles gambiae
# [6] = substrate: CCCCCC1OC1C/C=C\C/C=C\C/C=C\CCCC(=O)O; assay: as above; assay type: biochemical, Anopheles gambiae
molecule,measurement,setting,value
"O=C(O)CCCCCCCCCCCNC(=O)NC12CC3CC(CC(C3)C1)C2 [compound 1, 12-(3-adamantan-1-yl-ureido) dodecanoic acid]",IC50,[1],~60 nM
"O=C(Nc1ccc(OC(F)(F)F)cc1)N[C@H]1CC[C@H](Oc2ccc(C(=O)O)cc2)CC1 [compound 2, trans-4-{4-[3-(4-trifluoromethoxy-phenyl)-ureido]-cyclohexyloxy}-benzoic acid]",activity at 0.5 µM,[2],12.5%
AgEH (epoxide hydrolase from Anopheles gambiae) (Anopheles gambiae) (protein) MIQYYVRESIQFVVSYALCLFYSCRVLFGLLVLLVTKPHTKFWATKERPVPPECLRNHEYGTDKYQNANGIRIHFVENGDRSKPLMVLVHGFPEFWFSWRHQLKEFAKDYWVVALDMRGYGDTEKPQYQYAYRIDNMTEDIRCLVRQLGRQKFTLVAHDWGAVIGWHFITKHMEMVDRYIMMDAPSQKIARKLFSTSKTQFKMSWYIFFYQMPWLPEFFVRLMDFHLFEVVFRHHGGPDVIEAFKYTFSKPHAMTYPINYYRQNFRFFTRRQMPPRPKTFAPGLYLIGEKDLYISKESGPLMQQEFENLEFRVVPGVDHFLQQHNPELVNQVMREFLSKS,Km,[3],9.8 ± 2.0 µM
same,Vmax,[3],1.3 µmol/min/mg
same,Vmax/Km,[3],130000 µL/min/mg
same,Km,[4],30.5 ± 5.0 µM
same,Vmax,[4],1.2 µmol/min/mg
same,Vmax/Km,[4],41000 µL/min/mg
same,Km,[5],7.0 ± 0.6 µM
same,Vmax,[5],1.5 µmol/min/mg
same,Vmax/Km,[5],210000 µL/min/mg
same,Km,[6],3.0 ± 0.3 µM
same,Vmax,[6],1.4 µmol/min/mg
same,Vmax/Km,[6],460000 µL/min/mg

# From paper PMC4252830 (Insect biochemistry and molecular biology, 2014)
